Results on 30 substances are retold here after US11306156.

For experiment [1], the target named is D3H44 light chain T178R (Kabat) with N-terminal HA or FLAG tag. Briefly: LCCA, SPR read-out of light-chain tags; light-chain DNA 1:3 normalized to 1:1; competing light chain m17.
For experiment [2], the target named is D3H44 light chain Q124E_Q160E_T180E (Kabat) with N-terminal HA or FLAG tag. The experiment can be described thus: LCCA, SPR read-out of light-chain tags; light-chain DNA 1:3 normalized to 1:1; competing light chain m18.
The target in experiment [3] is D3H44 light chain Q124R_Q160K_T178R (Kabat) with N-terminal HA or FLAG tag. The experiment can be described thus: LCCA, SPR read-out of light-chain tags; light-chain DNA 1:3 normalized to 1:1; competing light chain m17.
In experiment [4] the target is D3H44 light chain Q124E_Q160E_T180E (Kabat) with N-terminal HA or FLAG tag. The experiment can be described thus: LCCA, SPR read-out of light-chain tags; light-chain DNA 1:3 normalized to 1:1; competing light chain m20.
Experiment [5] deals with tissue factor (TF) antigen (UniProt P13726). Briefly: SPR (ProteOn XPR36), Fab captured on anti-penta-His surface, TF as analyte, 1:1 fit.
The target is the same in experiment [6]. The experiment can be described thus: SPR (ProteOn XPR36), Fab captured on anti-penta-His surface, TF as analyte; reference wild-type D3H44 Fab.
Experiment [7] has the same target. Briefly: SPR, His-captured Fab, TF as analyte; against wild-type D3H44 Fab. A general note: SPR reads the build-up and loss of mass on a sensor chip optically.
Experiment [8] has the same target. The experiment can be described thus: SPR, His-captured Fab, TF as analyte, 1:1 fit.
Experiment [9] has the same target. Briefly: SPR (ProteOn XPR36), Fab captured on anti-penta-His surface, TF as analyte; reference is the wild-type D3H44 Fab.
Experiment [10] shares this target. Briefly: SPR, Fab captured on anti-penta-His surface, TF as analyte, 1:1 fit; against wild-type D3H44 Fab.
Experiment [11] shares this target. The experiment can be described thus: SPR, Fab captured on anti-penta-His surface, TF as analyte, 1:1 fit.
The target is the same in experiment [12]. The experiment can be described thus: SPR (ProteOn XPR36): His-tagged Fab captured on anti-penta-His surface, TF as analyte, 1:1 fit; batch C (+).

Turning to “D3H44 Fab heavy chain L143D_K145T_Q179E (Kabat) with C-terminal ABD2-His6 tag”, in experiment [1], the H1L1:H1L2 normalized median ratio is 89% and the H1L1:H1L2 normalized median scalar value ln(r1/f1) was 2.1. Besides, the H1L1:H1L2 normalized median ratio in experiment [2] worked out at 11%.
With “D3H44 Fab heavy chain Q179K (Kabat) with C-terminal ABD2-His6 tag”, the H2L2:H2L1 normalized median ratio in [3] came to 13%; in experiment [1] it was 22%; in [4] it was 87%; in experiment [2], 78%.
For the substance “D3H44 Fab heterodimer H1 L45P_L143E_K145T_H172R / L1 P44F_Q124R_Q160K_T178R”, in experiment [5], the equilibrium dissociation constant (Kd) was 0.29 nM. In experiment [6], this substance returned a Change in median values of KD of h1l1 Fab heterodimer compared to wild type (-(log(KD design)-log(KD wt))) of -0.27.
In experiment [5], “D3H44 Fab heterodimer H1 L124A / L1 V133W” gave a Kd of 0.13 nM. Besides, in [6], the Change in median values of KD of h1l1 Fab heterodimer compared to wild type (-(log(KD design)-log(KD wt))) was determined as 0.07.
Turning to “D3H44 Fab heterodimer H1 L124A_S186K / L1 Q124E_V133W_T180E”, in experiment [5], the Kd stood at 0.15 nM. For the same substance, in [6], the Change in median values of KD of h1l1 Fab heterodimer compared to wild type (-(log(KD design)-log(KD wt))) turned out to be 0.02.
With “D3H44 Fab heterodimer H1 L124R_A125R_H172T / L1 V133G_N137K_S174R_S176D”, the Kd in experiment [5] is 0.23 nM. In [6], this substance gave a Change in median values of KD of h1l1 Fab heterodimer compared to wild type (-(log(KD design)-log(KD wt))) of -0.16.
As to “D3H44 Fab heterodimer H1L1 of LCCA Set # 9052, 9051 and 9050 (H1 A139G_F174V_V190A; L1 S131T_L135F_S176F_T178F)”, the Change in median values of KD compared to wild type (-(log(KD design)-log(KD wt))) in [7] came to 0.06 log. The Kd in experiment [8] turned out to be 0.14 nM.
Take “D3H44 Fab heterodimer H1L1 of LCCA Set # 9062 and 9063 (H1 A139W_S188L; L1 F116A_L135V)”: in [7], the Change in median values of KD compared to wild type (-(log(KD design)-log(KD wt))) is -0.02 log. Also, the Kd in experiment [8] was determined as 0.17 nM.
Turning to “D3H44 Fab heterodimer H1L1 of LCCA Set # 9071 (H1 F174V; L1 S131T_S176F_T178F)”, in [7], the Change in median values of KD compared to wild type (-(log(KD design)-log(KD wt))) is -0.12 log. The Kd in [8] turned out to be 0.21 nM.
In the same order, the values of “D3H44 Fab heterodimer H1L1 of LCCA Set # 9099 (H1 L124A_Q179K; L1 Q124E_V133W_S176T_T178L_T180E)” are -0.09 log and 0.19 nM.
Consider “D3H44 Fab heterodimer H1L1 of LCCA Set # 9731 (H1 L143K; L1 Q124E_V133D)”, for which the Change in median values of KD compared to wild type (-(log(KD design)-log(KD wt))) in experiment [7] is -0.26 log. The same substance came in with a Kd in [8] of 0.28 nM.
The substance “D3H44 Fab heterodimer H1L1 of LCCA Set # 9732 and 9733 (H1 L143K; L1 Q124E_V133D_S176L)” registered a Change in median values of KD compared to wild type (-(log(KD design)-log(KD wt))) in [7] of -0.25 log. This substance gave a Kd in [8] of 0.28 nM.
Consider “D3H44 Fab heterodimer H1L1 of LCCA Set # 9769, 9767, 9763, 9759, 9761, 9760 and 9773 (H1 Q179K; L1 Q124E_Q160E_T180E)”, for which the Change in median values of KD compared to wild type (-(log(KD design)-log(KD wt))) in experiment [7] is -0.31 log. This substance also had a Kd in experiment [8] of 0.32 nM.
Turning to “D3H44 Fab heterodimer H1L1 of LCCA set 9181 (H1 L124E_L143D_K145M; L1 Q124K_V133G_S176R_T178K)”, the Kd in [5] stood at 0.22 nM. Also, the Change in median values of KD of h1l1 Fab heterodimer compared to wild type (-(log(KD design)-log(KD wt))) in experiment [9] is -0.15.
“D3H44 Fab heterodimer H1L1 of LCCA set 9188 (H1 L124E_L143D_K145M; L1 Q124K_V133G_S176R_T178R)” came in with a Kd in [5] of 0.13 nM. Further, in [9], the Change in median values of KD of h1l1 Fab heterodimer compared to wild type (-(log(KD design)-log(KD wt))) was 0.09.
For the substance “D3H44 Fab heterodimer H1L1 of LCCA set 9226 (H1 L124E_L143D_K145T; L1 Q124K_V133G_S176R_T178R)”, in experiment [5], the Kd is 0.16 nM. The substance further registered a Change in median values of KD of h1l1 Fab heterodimer compared to wild type (-(log(KD design)-log(KD wt))) in experiment [9] of -0.02.
The matching figures for “D3H44 Fab heterodimer H1L1 of LCCA set 9361 (H1 L124R_D146N_Q179K; L1 V133G_S176D_T178E_T180E)”: 0.16 nM and -0.01.
On to “D3H44 Fab heterodimer H1L1 of LCCA sets 9257 and 9259 (H1 L124E_L143E_K145M; L1 Q124K_V133G_S176R_T178K)”, for which the Kd in [5] worked out at 0.24 nM. In addition, the Change in median values of KD of h1l1 Fab heterodimer compared to wild type (-(log(KD design)-log(KD wt))) in experiment [9] was -0.19.
In [5], “D3H44 Fab heterodimer H1L1 of LCCA sets 9523 and 9524 (H1 L124R_S186R; L1 V133G_S176D_T178D)” came in with a Kd of 0.2 nM. The Change in median values of KD of h1l1 Fab heterodimer compared to wild type (-(log(KD design)-log(KD wt))) in experiment [9] was -0.1.
As to “D3H44 Fab heterodimer H1L1 of LCCA sets 9536 and 9526 (H1 L124R_S186R; L1 V133G_S176D_T178D_T180E)”, the Kd in experiment [5] was found to be 0.17 nM. The Change in median values of KD of h1l1 Fab heterodimer compared to wild type (-(log(KD design)-log(KD wt))) in [9] is -0.04.
On to “D3H44 H1L1 Fab heterodimer of LCCA Set # 9054 (H1 A139G_Q179K_V190A; L1 Q124E_L135W_Q160E_T180E)”, for which the change in median KD compared to wild type, -(log(KD design)-log(KD wt)) in experiment [10] stood at 0.05. The same substance gave a Kd in experiment [11] of 0.14 nM.
In the same order, the values of “D3H44 H1L1 Fab heterodimer of LCCA Set # 9098 (H1 L124A_Q179K; L1 Q124E_V133W_S176T_T178E_T180E)” are -0.03 and 0.17 nM.
On to “D3H44 H1L1 Fab heterodimer of LCCA Set # 9111 (H1 L124E_A125S_H172R_K228D; L1 S121K_V133G_S176R)”, for which, in experiment [10], the change in median KD compared to wild type, -(log(KD design)-log(KD wt)) stood at 0.09. In experiment [11], this substance returned a Kd of 0.13 nM.
“D3H44 H1L1 Fab heterodimer of LCCA Set # 9559 (H1 L124W_L143E_K145T_Q179E; L1 Q124K_V133A_S176T_T178R)” came in with a change in median KD compared to wild type, -(log(KD design)-log(KD wt)) in [10] of -0.24. For the same substance, the dissociation constant (Kd) in experiment [11] came out at 0.27 nM.
In experiment [10], “D3H44 H1L1 Fab heterodimer of LCCA Set # 9740 (H1 L143R; L1 Q124E_V133E)” registered a change in median KD compared to wild type, -(log(KD design)-log(KD wt)) of -0.09. In experiment [11], this substance yielded a Kd of 0.2 nM.
“D3H44 H1L1 Fab heterodimer of LCCA Set # 9742 (H1 L143R; L1 Q124E_V133E_Q160M)” showed a change in median KD compared to wild type, -(log(KD design)-log(KD wt)) in experiment [10] of -0.21. In experiment [11], this substance yielded a Kd of 0.25 nM.
As to “D3H44 H1L1 Fab heterodimer of LCCA Set # 10549 (H1 L45P_K145T_Q179E; L1 P44F_S131K)”, the change in median KD compared to wild type, -(log(KD design)-log(KD wt)) in [10] was -0.35. This substance also gave a Kd in experiment [11] of 0.35 nM.
On to “D3H44 H1L1 Fab heterodimer of LCCA set 9632 (H1 L143E_K145T_Q179D; L1 Q124R_T178R)”, for which, in experiment [12], the Change in median values of KD of h1|1 Fab heterodimer compared to wild type (-(log(KD design)-log(KD wt))) stood at 0.04 log units and the Kd is 0.14 nM.
On to “D3H44 H1L1 Fab heterodimer of LCCA set 9741 (H1 L143R; L1 Q124E_V133E_Q160F)”, for which, in experiment [12], the Change in median values of KD of h1|1 Fab heterodimer compared to wild type (-(log(KD design)-log(KD wt))) was found to be 0.34 log units and the Kd was found to be 0.07 nM.
In experiment [12], “D3H44 H1L1 Fab heterodimer of LCCA sets 9911, 9909 and 9907 (H1 S188L; L1 WT)” gave a Change in median values of KD of h1|1 Fab heterodimer compared to wild type (-(log(KD design)-log(KD wt))) of 0.27 log units and a Kd of 0.09 nM.

In general, Kd refers to the equilibrium constant for the complex coming apart.
